Results from US20240209109A1.

Columns and labels:
[1] = biological target: human CD40 on cells (human) (UniProt P25942); assay: FACS on human B cells (CD19+ gate), PE anti-human IgG Fc, MFI
[2] = biological target: human CD40-His protein (human) (UniProt P25942); assay: ELISA on coated human CD40-His (1.0 ug/ml), anti-human IgG-HRP, OD450
[3] = biological target: human CD40 on cells (human) (UniProt P25942); assay: FACS on Jurkat cells overexpressing human CD40, PE anti-human IgG, MFI
[4] = biological target: human CD40 on cells (human) (UniProt P25942); assay: as above; remark: listed apart in the source

Chain of selicrelumab (antibody) (VH): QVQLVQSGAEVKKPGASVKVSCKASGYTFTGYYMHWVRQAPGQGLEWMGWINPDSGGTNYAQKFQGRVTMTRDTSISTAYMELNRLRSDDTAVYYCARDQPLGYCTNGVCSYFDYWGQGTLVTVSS
Chain of selicrelumab (antibody) (VL): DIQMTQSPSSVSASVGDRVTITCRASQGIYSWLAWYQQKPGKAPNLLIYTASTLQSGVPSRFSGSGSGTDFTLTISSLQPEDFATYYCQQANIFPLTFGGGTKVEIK
Chain of human CD40 on cells (human) (P25942 21-277): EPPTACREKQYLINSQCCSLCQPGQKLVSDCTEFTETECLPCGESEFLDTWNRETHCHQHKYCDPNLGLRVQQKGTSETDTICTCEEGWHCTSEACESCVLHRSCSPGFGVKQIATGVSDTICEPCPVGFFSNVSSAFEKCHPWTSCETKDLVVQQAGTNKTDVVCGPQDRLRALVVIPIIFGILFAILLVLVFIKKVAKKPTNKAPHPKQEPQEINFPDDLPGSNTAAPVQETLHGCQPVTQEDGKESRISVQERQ
Chain of human CD40-His protein (human) (P25942 21-193 limits assumed): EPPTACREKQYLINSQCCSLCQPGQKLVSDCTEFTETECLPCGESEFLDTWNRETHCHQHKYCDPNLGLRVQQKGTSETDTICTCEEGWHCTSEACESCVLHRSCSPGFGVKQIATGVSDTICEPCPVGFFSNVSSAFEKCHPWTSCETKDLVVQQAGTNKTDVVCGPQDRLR

selicrelumab (antibody)
EC50 (read off the curve) [1]: 1 nM | EC50 (read off the curve) [2]: 0.7 nM | EC50 (read off the curve) [3]: 0.9 nM | EC50 (read off the curve) [4]: 1 nM
